Assay: Colour change of iron fortified strawberry-banana yoghurt after flash pasteurization (CIELAB colorimetry)
Format: physicochemical
Settings: colour difference vs yoghurt with no iron salts; Jogolino Strawberry/Banana yoghurt, approx. 0.8 mg iron per 100 g; flash pasteurized at 105° C. for 2 minutes
Method: Commercial yoghurt, Nestlé Jogolino™ Strawberry/Banana yoghurt containing 15% banana puree and 10% strawberry puree, was iron fortified by the addition of different iron containing materials to 5 kg yoghurt as reported in the table below. The amounts were chosen to provide approximately 0.8 mg iron per 100 g yoghurt. A 100 g serving of yoghurt with that level of iron would provide 15% of the recommended daily amount of iron for an infant [Official Journal of the European Union, Commission Directive 2006/125/EC].
For the lactoferrin-osteopontin-iron complex (Trial B), the powder from Example 1 was added to yoghurt at a level of 28 g per 5 kg yoghurt. The resulting yoghurt composition comprised 5.6 g powder per kg which is 4 g LF-OPN-Fe complex per kg.
The yoghurts were flash pasteurized at 105° C. for 2 minutes. Colour measurements were performed in 1×1 cm polystyrene cuvettes using an X-Rite ColorEye 7000A colorimeter. The colorimeter was set up with a D65 light source, 10 degree observer angle and with specular component included. The colour difference between the yoghurt with no iron salts and the iron fortified yoghurt was measured for each iron salt and expressed as ΔEab* using the CIELAB colour scale.

B1: Lactoferrin-Fe: Lactoferrin obtained from Armor proteins, supplied with some iron complexed to it; comparison fortificant (protein, UniProt P24627 20-708, looked up)
Lactotransferrin: APRKNVRWCTISQPEWFKCRRWQWRMKKLGAPSITCVRRAFALECIRAIAEKKADAVTLDGGMVFEAGRDPYKLRPVAAEIYGTKESPQTHYYAVAVVKKGSNFQLDQLQGRKSCHTGLGRSAGWIIPMGILRPYLSWTESLEPLQGAVAKFFSASCVPCIDRQAYPNLCQLCKGEGENQCACSSREPYFGYSGAFKCLQDGAGDVAFVKETTVFENLPEKADRDQYELLCLNNSRAPVDAFKECHLAQVPSHAVVARSVDGKEDLIWKLLSKAQEKFGKNKSRSFQLFGSPPGQRDLLFKDSALGFLRIPSKVDSALYLGSRYLTTLKNLRETAEEVKARYTRVVWCAVGPEEQKKCQQWSQQSGQNVTCATASTTDDCIVLVLKGEADALNLDGGYIYTAGKCGLVPVLAENRKSSKHSSLDCVLRPTEGYLAVAVVKKANEGLTWNSLKDKKSCHTAVDRTAGWNIPMGLIVNQTGSCAFDEFFSQSCAPGADPKSRLCALCAGDDQGLDKCVPNSKEKYYGYTGAFRCLAEDVGDVAFVKNDTVWENTNGESTADWAKNLNREDFRLLCLDGTRKPVTEAQSCHLAVAPNHAVVSRSDRAAHVKQVLLHQQALFGKNGKNCPDKFCLFKSETKNLLFNDNTECLAKLGGRPTYEEYLGTEYVTAIANLKKCSTSPLLEACAFLTR
modifications: iron complex
notes: Lactoferrin obtained from Armor proteins, supplied with some iron complexed to it; comparison fortificant
ΔEab*: 5.64

Source: patent US20160166638A1, “LACTOFERRIN-OSTEOPONTIN-IRON COMPLEX” (NESTEC S.A., priority 2013, published 2016)
